Assay results published in the RNAGym collection of RNA variant scans (doi:10.1093/nar/gkz1192).

B1: CPEB3 Ribozyme (parent)
chain: UAACAGGGGGCCACAGCAGAAGCGUUCACGUCGCAGCCCCUGUCAGAUUCUGGUGAAUCUGCGAAUUCUGCUGUAUAUCUC

Variants of: B1
Assay: self-cleavage, relative activity (ratio to wild type); higher = more cleavage; in vitro, sequencing
Summary of the method: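 Relative activity compares each variant's cleaved/total read fraction with that of the unmutated ribozyme. To get these fractions, barcoded CPEB3 ribozyme libraries from rounds of error-prone PCR were transcribed with T7 RNA polymerase for 5 hours at 37°C and then given 15 min of DNase I treatment before EDTA was added. The RNAs were reverse transcribed with template switching and sequenced on Illumina, and DNA sequencing linked barcodes to variants. A minimum of 5 reads applied, and three batches were averaged.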

Variant | self-cleavage
UAACAGGGUGCCACAGCAGAAGCGUUCACGUCGCAGUCCCUGUCAGAUUCUGGUGAAUCUGCGAAUUCUGCUGUAUAUCUC [G9U C37U] | 0.07
UAACAGGGUGCCACAGCAGAGGCGUUCACGUCGCAGCCCCUGUCAGAUUCUGGUGAAUCUGCGAAUUCUGCUGUAUAUCUC [G9U A21G] | 0.22
UAACAGGGUGCCGCAGCAGAAGCGUUCACGUCGCAGCCCCUGUCAGAUUCUGGUGAAUCUGCGAAUUCUGCUGUAUAUCUC [G9U A13G] | 0.24
UAACAGGGUGCCACAGCAGAAGCGUUCACGUCGCAGCCCCUGUCAGAUUCUGGUGAGUCUGCGAAUUCUGCUGUAUAUCUC [G9U A57G] | 0.25
UAACAGGGUGCCACAGCUGAAGCGUUCACGUCGCAGCCCCUGUCAGAUUCUGGUGAAUCUGCGAAUUCUGCUGUAUAUCUC [G9U A18U] | 0.2
UAACAGGGUGCCACAGCGGAAGCGUUCACGUCGCAGCCCCUGUCAGAUUCUGGUGAAUCUGCGAAUUCUGCUGUAUAUCUC [G9U A18G] | 0.19
UAACAGGGUGCCACAGCCGAAGCGUUCACGUCGCAGCCCCUGUCAGAUUCUGGUGAAUCUGCGAAUUCUGCUGUAUAUCUC [G9U A18C] | 0.18
UAACAGGGUGCCACAGCAGAAGCGUUCACGUCGCAGCCCCUGUCAGGUUCUGGUGAAUCUGCGAAUUCUGCUGUAUAUCUC [G9U A47G] | 0.29
UAACAGGGUGCCACAGCAGAAGCGUUCACGUCGCAGCCCCUGUCAGAUUCUGGUGAAUCUGCGAAUUCUGCUGUAUUUCUC [G9U A77U] | 0.16
UAACAGGGUGCCAUAGCAGAAGCGUUCACGUCGCAGCCCCUGUCAGAUUCUGGUGAAUCUGCGAAUUCUGCUGUAUAUCUC [G9U C14U] | 0.11
UAACAGGGUGCCACAGCAGGAGCGUUCACGUCGCAGCCCCUGUCAGAUUCUGGUGAAUCUGCGAAUUCUGCUGUAUAUCUC [G9U A20G] | 0.34
UAACAGGGUGCCACAGCAGAAGCGUUCACGUCGCAGCCCCUGUCAGAUUCUGGUGAAUCUGCGAAUUCUGCUGUAUAUCUC [G9U] | 0.24
UAACAGGGUGCCACAGCAGAAGCGUUCACGUCGCAGCACCUGUCAGAUUCUGGUGAAUCUGCGAAUUCUGCUGUAUAUCUC [G9U C38A] | 1.09
UAACAGGGUGCCACAGCAGAAGCGUUCACGUCGCAGCCCCUGUCAGAUUCUGGUGCAUCUGCGAAUUCUGCUGUAUAUCUC [G9U A56C] | 0.29
UAACAGGGUGCCACAGCAGAAGCGUUCACGUCGCAGCCCCUGUCAGAUUCUGGUGUAUCUGCGAAUUCUGCUGUAUAUCUC [G9U A56U] | 0.29
UAACAGGGUGCCACAGCAGAAGCGUUCACGUCGCAGCCCCUGUCAGAUUCUGGUGGAUCUGCGAAUUCUGCUGUAUAUCUC [G9U A56G] | 0.14
UAACAGGGUGCCACCGCAGAAGCGUUCACGUCGCAGCCCCUGUCAGAUUCUGGUGAAUCUGCGAAUUCUGCUGUAUAUCUC [G9U A15C] | 0.36

Variant | self-cleavage
UAACAGGGUGCCACGGCAGAAGCGUUCACGUCGCAGCCCCUGUCAGAUUCUGGUGAAUCUGCGAAUUCUGCUGUAUAUCUC [G9U A15G] | 0.14
UAACAGGGUGCCACUGCAGAAGCGUUCACGUCGCAGCCCCUGUCAGAUUCUGGUGAAUCUGCGAAUUCUGCUGUAUAUCUC [G9U A15U] | 0.32
UAACAGGGUGCCACAGCAGAAGCGUUCAUGUCGCAGCCCCUGUCAGAUUCUGGUGAAUCUGCGAAUUCUGCUGUAUAUCUC [G9U C29U] | 0.13
UAACAGGGUGCUACAGCAGAAGCGUUCACGUCGCAGCCCCUGUCAGAUUCUGGUGAAUCUGCGAAUUCUGCUGUAUAUCUC [G9U C12U] | 0.2
UAACAGGGUGCCACAGCAGAAGCGUUCGCGUCGCAGCCCCUGUCAGAUUCUGGUGAAUCUGCGAAUUCUGCUGUAUAUCUC [G9U A28G] | 0.11
UAACAGGGUGCCACAGCAGAAGCGUUCUCGUCGCAGCCCCUGUCAGAUUCUGGUGAAUCUGCGAAUUCUGCUGUAUAUCUC [G9U A28U] | 0.13
UAACAGGGUGCCACAGCAGAAGCGUUCACGUCGCAGCCCCUGUCAGAUUCUGGUGAAUCUGCGGAUUCUGCUGUAUAUCUC [G9U A64G] | 0.15
UAACAGGGUGCCACAGCAGAAGCGUUCACGUCGCAGCCCCUGUCAGAUUCUGGUGAAUCUGCGUAUUCUGCUGUAUAUCUC [G9U A64U] | 0.06
UAACAGGGUGCCACAGCAGAAGCGUUCACGUCGCAGCCCCUGUCAGAUUCUGGUGAAUCUGCGAAUUCUGCUGUUUAUCUC [G9U A75U] | 0.17
UAACAGGGUGCCACAGCAGAAGCGUUCACGUCGCAGCCCCUGUCAGAUUCUGGUGAAUCUGCGAAUUCUGCUGUGUAUCUC [G9U A75G] | 0.13
UAACAGGGUGCCACAGCAGAAGCGUUCACGUCGCAGCCCCUGUCAGAUUCUGGUGAAUCUGCGAGUUCUGCUGUAUAUCUC [G9U A65G] | 0.17
UAACAGGGUGCCACAGCAGAAGCGUUCACGUCGCCGCCCCUGUCAGAUUCUGGUGAAUCUGCGAAUUCUGCUGUAUAUCUC [G9U A35C] | 0.14
UAACAGGGUGCCACAGCAGAAGCGUUCACGUCGCUGCCCCUGUCAGAUUCUGGUGAAUCUGCGAAUUCUGCUGUAUAUCUC [G9U A35U] | 0.14
UAACAGGGUGCCACAGCAGAAGCGUUCACGUCGCGGCCCCUGUCAGAUUCUGGUGAAUCUGCGAAUUCUGCUGUAUAUCUC [G9U A35G] | 0.33
UAACAGGGUGCCACAGCAGAAGCGUUCACGUCGCAGCCCCUGUCCGAUUCUGGUGAAUCUGCGAAUUCUGCUGUAUAUCUC [G9U A45C] | 0.05
UAACAGGGUGCCACAGCAGAAGCGUUCACGUCGCAGCCCCUGUCGGAUUCUGGUGAAUCUGCGAAUUCUGCUGUAUAUCUC [G9U A45G] | 0.11
UAACAGGGUGCCACAGCAGAAGCGUUCACGUCGCAGCCCCUGUCUGAUUCUGGUGAAUCUGCGAAUUCUGCUGUAUAUCUC [G9U A45U] | 0.04
